From patent EP3461842A1 (Amgen Research (Munich) GmbH, dated 2019)
Where a chain is given by its changes, count along the chain named. Names and notes keep the numbering of the source.

Key:
[1] = target: T1, 1-27 CD3-Fc (N-terminal amino acids 1-27 of the mature human CD3 epsilon chain fused to the hinge and Fc … (human)); test: ELISA, captured 1-27 CD3-Fc, periplasmic scFv
T1 construct: The synthetic gene also codes a 19 amino acid immunoglobulin leader; also called 27 aa huCD3E; human CD3 epsilon (aa 1-27)- Fc fusion protein

[2] = target: T2, 1-27 CD3-EpCAM, squirrel monkey 27 mer (Saimiri sciureus CD3 epsilon 1-27, Flag tag, cynomolgus EpCAM) (Saimiri sciureus; cynomolgus monkey); test: FACS, 293-HEK transfectant
T2 construct: On transfected cells
T2 chain: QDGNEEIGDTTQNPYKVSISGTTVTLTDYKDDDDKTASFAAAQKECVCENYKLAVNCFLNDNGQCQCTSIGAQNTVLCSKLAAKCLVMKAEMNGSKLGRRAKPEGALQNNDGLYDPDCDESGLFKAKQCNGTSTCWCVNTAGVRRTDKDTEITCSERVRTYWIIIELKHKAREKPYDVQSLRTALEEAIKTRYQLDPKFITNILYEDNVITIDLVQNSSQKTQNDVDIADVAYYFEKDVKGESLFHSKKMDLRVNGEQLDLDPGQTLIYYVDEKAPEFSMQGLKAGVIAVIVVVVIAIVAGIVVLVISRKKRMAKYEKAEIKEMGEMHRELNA

[3] = target: T3, 1-27 CD3-EpCAM, human 27 mer (N-terminal amino acids 1-27 of human CD3 epsilon, Flag tag, cynomolgus EpCAM) (human; cynomolgus monkey); test: FACS, 293-HEK transfectant
T3 chain: T2 chain with I7M, D9G, T10I, N13T, T25I

[4] = target: T4, 1-27 CD3-EpCAM, swine 27 mer (Sus scrofa CD3 epsilon 1-27, Flag tag, cynomolgus EpCAM) (Sus scrofa; cynomolgus monkey); test: FACS on transfected 293-HEK cells
T4 construct: Negative control, on transfected cells
T4 chain: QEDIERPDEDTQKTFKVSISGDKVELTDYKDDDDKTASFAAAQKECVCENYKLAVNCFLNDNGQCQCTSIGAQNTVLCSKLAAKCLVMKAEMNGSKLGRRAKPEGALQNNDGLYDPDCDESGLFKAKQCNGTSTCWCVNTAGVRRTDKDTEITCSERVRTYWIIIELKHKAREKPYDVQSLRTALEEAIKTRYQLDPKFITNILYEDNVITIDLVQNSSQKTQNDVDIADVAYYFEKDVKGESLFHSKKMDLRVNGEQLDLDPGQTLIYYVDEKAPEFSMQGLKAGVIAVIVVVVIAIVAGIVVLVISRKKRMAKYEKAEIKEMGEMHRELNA

[5] = target: T1, 1-27 CD3-Fc (N-terminal amino acids …); test: SPR (Biacore 2000), 1-27 CD3-Fc coupled to CM5 chip, Langmuir model
[6] = target: T5, human CD3 (epsilon) on human T cells (HPB-ALL cell line, human PBMC) (human, UniProt P07766 23-207); test: FACS, HPB-ALL
T5 construct: whole, on cells; also called native CD3
T5 sequence (P07766 23-207): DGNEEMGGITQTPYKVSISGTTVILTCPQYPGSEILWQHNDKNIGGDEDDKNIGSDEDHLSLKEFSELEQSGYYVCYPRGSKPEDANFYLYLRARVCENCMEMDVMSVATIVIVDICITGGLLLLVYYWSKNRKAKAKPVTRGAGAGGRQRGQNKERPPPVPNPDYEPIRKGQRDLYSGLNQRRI

B1: A2J HLP single-chain antibody (scFv)
scFv: EVQLLESGGGLVQPGGSLKLSCAASGFTFNVYAMNWVRQAPGKGLEWVARIRSKYNNYATYYADSVKKRFTISRDDSKNTAYLQMNNLKTEDTAVYYCVRHGNFGNSYLSWWAYWGQGTLVTVSSGGGGSGGGGSGGGGSELVVTQEPSLTVSPGGTVTLTCRSSTGAVTSGYYPNWVQQKPGQAPRGLIGATDMRPSGTPARFSGSLLGGKAALTLSGVQPEDEAEYYCALWYSNRWVFGGGTKLTVL
notes: Crude periplasmic preparation, Flag and His6 tags
binding result [1]: binds

B2: E2M HLP single-chain antibody (scFv)
scFv: B1 scFv with V31G, K68E, G102R, W112F
notes: as for B1
binding result [1]: binds | binding result [2]: binds | binding result [3]: binds | binding result [4]: no binding

B3: EGFR-21-63 LH x A2J HLP (bispecific antibody)
chain: DIVLTQSPASLPVSLGQRATISCRASQSVSSSTYSYIHWYQQKPGQPPKLLITYASNLESGVPARFSGSGSGTDFTLDIHPVEEDDSSTYYCQHSWEIPFTFGSGTKLEIKGGGGSGGGGSGGGGSQVQLQQSGPDLVKPGASVKMSCKASGHTFTDCVIIWVKQRAGQGLEWIGQIYPGTGRSYYNEIFKGKATLTADKSSNTVHIQLSSLTSEDSAVYFCALSTLIHGTWFSYWGQGTLVTVSSGGGGSEVQLLESGGGLVQPGGSLKLSCAASGFTFNVYAMNWVRQAPGKGLEWVARIRSKYNNYATYYADSVKKRFTISRDDSKNTAYLQMNNLKTEDTAVYYCVRHGNFGNSYLSWWAYWGQGTLVTVSSGGGGSGGGGSGGGGSELVVTQEPSLTVSPGGTVTLTCRSSTGAVTSGYYPNWVQQKPGQAPRGLIGATDMRPSGTPARFSGSLLGGKAALTLSGVQPEDEAEYYCALWYSNRWVFGGGTKLTVL
notes: plus C-terminal His6 tag; also called EGFR LH x A2J HLP
Kd [5]: 249 nM

B4: EGFR-21-63 LH x E2M HLP (bispecific antibody)
chain: B3 chain with V282G, K319E, G353R, W363F
notes: plus C-terminal His6 tag; also called EGFR LH x E2M HLP
Kd [5]: 2460 nM

B5: MCSP-G4 HLP x E2M HLP (bispecific antibody)
chain: QVQLVQSGAEVKRPGASMKVSCKASGYTFTNYYIHWVRQAPGQGLEWMGWINPNSGATNYAQKFQGRVTMTRDTSTSTVYMELSSLRSEDTAVYYCAKSWVSWFASWGQGTLVTVSSGGGGSGGGGSGGGGSELVMTQSPDSLAVSLGERATINCKSSQSVLNSSNNRNYLAWYQQKPGQPPKLLIYWASTRESGVPDRFSGSGSGTDFTLTISGLQAEDVAVYYCQQHYSTPFTFGPGTKVDIKSGGGGSEVQLLESGGGLVQPGGSLKLSCAASGFTFNGYAMNWVRQAPGKGLEWVARIRSKYNNYATYYADSVKERFTISRDDSKNTAYLQMNNLKTEDTAVYYCVRHRNFGNSYLSWFAYWGQGTLVTVSSGGGGSGGGGSGGGGSELVVTQEPSLTVSPGGTVTLTCRSSTGAVTSGYYPNWVQQKPGQAPRGLIGATDMRPSGTPARFSGSLLGGKAALTLSGVQPEDEAEYYCALWYSNRWVFGGGTKLTVL
notes: plus C-terminal His6 tag
binding result [6]: binds
